Test results published in publication doi:10.1101/2023.02.03.527063 (bioRxiv, 2023).

Target: T1, FLAG-tagged PXR K109A (human, UniProt O75469 1-434, K109A)
T1 sequence (looked up): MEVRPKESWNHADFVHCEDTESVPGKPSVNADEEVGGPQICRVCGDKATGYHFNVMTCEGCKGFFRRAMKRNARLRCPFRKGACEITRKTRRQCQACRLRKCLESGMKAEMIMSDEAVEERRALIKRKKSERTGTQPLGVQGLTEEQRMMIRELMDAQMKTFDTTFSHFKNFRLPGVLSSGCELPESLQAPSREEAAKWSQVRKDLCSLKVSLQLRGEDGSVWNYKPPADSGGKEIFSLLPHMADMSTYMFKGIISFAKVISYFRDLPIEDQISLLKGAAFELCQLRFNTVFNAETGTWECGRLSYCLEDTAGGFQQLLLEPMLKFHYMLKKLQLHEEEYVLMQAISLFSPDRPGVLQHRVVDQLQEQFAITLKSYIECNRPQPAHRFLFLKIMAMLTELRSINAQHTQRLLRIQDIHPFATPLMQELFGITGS
Assay: co-IP

B1: His-tagged BRD9 (natural protein, UniProt Q9H8M2 1-597, looked up)
chain: MGKKHKKHKAEWRSSYEDYADKPLEKPLKLVLKVGGSEVTELSGSGHDSSYYDDRSDHERERHKEKKKKKKKKSEKEKHLDDEERRKRKEEKKRKREREHCDTEGEADDFDPGKKVEVEPPPDRPVRACRTQPAENESTPIQQLLEHFLRQLQRKDPHGFFAFPVTDAIAPGYSMIIKHPMDFGTMKDKIVANEYKSVTEFKADFKLMCDNAMTYNRPDTVYYKLAKKILHAGFKMMSKQAALLGNEDTAVEEPVPEVVPVQVETAKKSKKPSREVISCMFEPEGNACSLTDSTAEEHVLALVEHAADEARDRINRFLPGGKMGYLKRNGDGSLLYSVVNTAEPDADEEETHPVDLSSLSSKLLPGFTTLGFKDERRNKVTFLSSATTALSMQNNSVFGDLKSDEMELLYSAYGDETGVQCALSLQEFVKDAGSYSKKVVDDLLDQITGGDHSRTLFQLKQRRNVPMKPPDEAKVGDTLGDSSSSVLEFMSMKSYPDVSVDISMLSSLGKVKKELDPDDSHLNLDETTKLLQDLHEAQAERGGSRPSSNLSSLSNASERDQHHLGSPSRLSVGEQPDVTHDPYEFLQSPEPAASAKT
- interaction relative to that between FLAG-PXR and BRD9-His: 0.3 fold
